The source of these data is patent US20220267422A1 (PHAROSGEN, published 2022).

The target of test [1] is T1, mPRND.
T1 construct: also called Mouse PRND; mouse doppel, recombinant, C-terminal His tag
T1 single chain: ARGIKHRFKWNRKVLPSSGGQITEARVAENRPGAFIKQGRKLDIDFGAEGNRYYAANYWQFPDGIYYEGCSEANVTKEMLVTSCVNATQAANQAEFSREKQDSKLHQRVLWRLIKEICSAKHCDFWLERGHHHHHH
Description: ELISA, […], antibody 0-100 nM; […] (nM)'. (In general: ELISA stands for enzyme-linked immunosorbent assay.)

Test [2] has as its target doppel (Prnd) recombinant protein immobilized on the SPR sensor chip. Description: SPR, BIAcore T100, recombinant protein immobilized on chip. A general note: In SPR one partner is held on a chip, and binding of the other changes the refractive index at the surface.
Description: Affinity measurements of anti-doppel monoclonal antibodies produced by the clones described herein with Prnp and Prnd (doppel) were performed by the surface plasmon resonance on a BIAcore T100 (GE Healthcare). Using the standard EDAC-NHS coupling method, recombinant proteins were immobilized at a density of 4000-7000 onto a sensor chip (GE Healthcare). Measurements were performed at a flow rate of 20 μL/min, and 50 mM NaOH was used to regenerate the chip surface after each cycle of analysis. Each concentration was analyzed in duplicate. Kinetic analysis of the data obtained was performed using BIAcore T100 evaluation software (GE Healthcare).
Test [3] addresses T2, human doppel on human tumor endothelial cells (human, UniProt Q9UKY0 26-152).
T2 construct: whole, on cells; also called PRND; hPRND
Description: flow cytometry on HCTEC (human colonic tumor endothelial cells), fluorescent secondary antibody; no control bar and no antibody concentration shown.

Test [4] concerns the target T3, Doppel on HCT116 cells, HUVEC and Dpl k/d HUVEC (human, UniProt Q9UKY0).
T3 construct: endogenous, on the surface of HCT116 cells, HUVEC and doppel knock-down HUVEC; also called PRND
The test is described as follows: flow cytometry, '% Doppel Ab binding cell' on HCT116, HUVEC and doppel knock-down HUVEC (24h, 48h); no control antibody and no concentration shown. On the technique in general: Flow cytometry measures light scatter and fluorescence of single cells or particles in a stream.

The target in test [5] is T1, mPRND. Description: ELISA, […], antibody 0-100 nM; […] (nM)'; […].
Test [6] addresses T2, human doppel on human tumor endothelial …. Description: flow cytometry on human tumor endothelial cells, cancer cells and doppel knock-down cells.
Test [7] addresses T1, mPRND. Description: ELISA, […], antibody 0-100 nM; […] (nM)'.

B1: murine monoclonal antibody produced by hybridoma cell line clone 4H7 (antibody, V domains shown)
VH: DVQLQESGPDLVKPSQSLSLTCTVTGYSITSGYSWHWIRQFPGNKLEWMGYIHYSGNTNYNPSLKSRISITRDTSKNQFFLQLNSVTTEDTATYSCAMRTYYYGPLDYWGQGTTLTVSS
VL: not shown
notes: also called hPrnd #4H7; KCLRF-BP-00496
Consider B1, for which the Kd (usually the concentration at which binding is half-saturated) worked out at 0.868 nM in the test with mPRND [1] and 0.0287 nM in test [2]. The binding result in test [3] is recorded as “binds”.

B2: murine monoclonal antibody produced by hybridoma cell line clone 7G3 (antibody, V domains shown)
VH: EIQLQQTGPELVKPGASVKISCKASGYSFTDYIMLWVKQSHGKSLEWIGNINPYYGSTSYNLKFKGKATLTVDKSSSTAYMQLNSLTSEDSAVYYCARRNYYGNYDAMDYWGQGTSVTVSS
VL: QIVLTQSPAIMSASLGERVTMTCTASSSVSSSYLHWYQQKPGSSPKLWIYSTSNLASGVPARFSGSGSGTSYSLTISSMEAEDTATYYCHQYHRSPLTFGAGTKLELK
notes: also called hPrnd #7G3; KCLRF-BP-00500
Consider B2, for which the Kd was determined as 10.6 nM in test [2] and 25.9 nM with mPRND [5]. Further, the binding result in test [4] and in test [3] was “binds” each time.

B3: Human monoclonal antibody A12 (antibody, V domains shown)
VH: not shown
VL: DIQMTQSPSSLSASVGDRVTITCRASQSIGSYLNWYQQKPGKAPKLLIYAASTLQSGVPSRFSGSGSGTDFTLTISSLQPEDFATYYCQQSYSFPWTFGQGTKVEIKR
B3: the binding result in test [6] and in test [4] was “binds” in each case. Further, in test [2], the Kd is 9.2 nM.

B4: Human monoclonal antibody E9 (antibody, human IgG1, kappa, V domains shown)
VH: QVQLVQSGAEVKKPGSSVKVSCKASGGTFSSYYMHWVRQAPGQGLEWMGRISPGGGGTIYAQKFQGRVTITADESTSTAYMELSSLRSEDTAVYYCARAQSEGLSYYFDVWGQGTLVTVSS
VL: DIQMTQSPSSLSASVGDRVTITCRASQSIRNYLNWYQQKPGKAPKLLIYAASNLQSGVPSRFSGSGSGTDFTLTISSLQPEDFATYYCQQSSSFPLTFGQGTKVEIKR
On to B4, for which the Kd in test [2] is 4.41 nM.

B5: Human monoclonal antibody B2 (antibody, V domains shown)
VH: not shown
VL: DIQMTQSPSSLSASVGDRVTITCRASQSISNYLNWYQQKPGKAPKLLIYAASRLQSGVPSRFSGSGSGTDFTLTISSLQPEDFATYYCQQSYSFPWTFGQGTKVEIKR
In the case of B5, the binding result in test [6] and in test [4] was “binds” in each case. Besides, the Kd in test [2] stood at 7.99 nM.

B6: murine monoclonal antibody produced by hybridoma cell line clone 2C10 (antibody, V domains shown)
VH: EVQLQESGPSLVKPSQTLSLTCSVTGDSITSGYWNWIRKFPGNKLEYMGYIRYSGSAYYNPSLKSRISITRDTSKNQYYLQLNSVTTEDTATYYCARYPYYGSYWYFDVWGAGTTVTVSS
VL: DVQITQSPSYLAASPGETITLNCRASKSISKYLAWYQEKPGKTNKLLIYSGSTLQSGIPSRFSGSGSGSDFTLTISSLEPEDFAMYYCQQHSEYPWTFGGGTKLEIK
notes: also called hPrnd #2C10; KCLRF-BP-00491
With B6, the binding result in test [6] and in test [4] was “binds” in each case. For the same molecule, the Kd in test [2] turned out to be 8.76 nM.

B7: murine monoclonal antibody produced by hybridoma cell line clone 2B6 (antibody, V domains shown)
VH: QVQLQQSGAELVRPGVSVKLSCKFSGFTFTDYAMHWVRQSHAKSLAWIGVISSYYGDASYNQKFTGKATMTVDKSSSTAYMELARLTSEDSAIYYCARRLRGAMDYWGQGTSVTVSS
VL: DIVMTQSQKFMSTSVGDRVSVTCKASQNVDANVAWYQQKPGQSPKALIYSASYRYSGVPYRFTGSGSGTDFTLTISNVQSADLAEYFCQQYNSYPFTFGSGTKLELK
notes: also called hPrnd #2B6; KCLRF-BP-00490
With B7, the Kd in test [2] stood at 0.292 nM; with mPRND [7], 6.52 nM. Besides, the binding result in test [4] and in test [3] was “binds” each time.

B8: murine monoclonal antibody produced by hybridoma cell line clone 2E9 (antibody, V domains shown)
VH: not shown
VL: DVQMTQTTSSLSASLGDRVTISCSASRGISNYLNWYQQKPDGTVKLLIYYTSSLHSGVPPRFSGSGSGTDYSLTISNLEPEDIATYYCQQYSKLPSTFGGGTKVEIK
notes: also called hPrnd #2E9; KCLRF-BP-00493
For the molecule B8, the equilibrium dissociation constant (Kd) in test [2] worked out at 4.05 nM. Moreover, the binding result in test [3] is “binds”.

B9: murine monoclonal antibody produced by hybridoma cell line clone 7A11 (antibody, V domains shown)
VH: QVQLQQPGAELVRPGASVKLSCKASGYTFTSYWINWVKQRPGQGLEWIGNIYPSDSYTNYNQKFKDKATLTVDKSSSTAYMQLSSPTSEDSAVYYCTRSMITWGQGTTLTVSS
VL: DVLMTQTPLSLPVSLGDQASISCRSSQSIVHSNGNTYLEWYLQKPGQSPKVLIYKVSNRFSGVPDRFSGSGSGTDFTLKINRVEAEDLGVYYCFQGSHVPLTFGAGTKLELK
notes: also called hPrnd #7A11; KCLRF-BP-00498
Regarding B9, the dissociation constant (Kd) in test [2] came out at 0.253 nM; with mPRND [7], 0.876 nM.
